Laboratory results published in patent US20110306105A1 (University of California, published 2011).

Legend:
[1] = biological target: T1, scaffoldin Scaf-c displayed on the yeast cell surface (chimeric: C. cellulolyticum cohesin …); assay: immunofluorescence microscopy with anti-His6 on yeast displaying Scaf-c incubated with E. coli lysate
T1 construct: also called Sacf-c; not shown: yeast surface display anchor of vector pCTCON2; C-terminal c-Myc tag
T1 chain: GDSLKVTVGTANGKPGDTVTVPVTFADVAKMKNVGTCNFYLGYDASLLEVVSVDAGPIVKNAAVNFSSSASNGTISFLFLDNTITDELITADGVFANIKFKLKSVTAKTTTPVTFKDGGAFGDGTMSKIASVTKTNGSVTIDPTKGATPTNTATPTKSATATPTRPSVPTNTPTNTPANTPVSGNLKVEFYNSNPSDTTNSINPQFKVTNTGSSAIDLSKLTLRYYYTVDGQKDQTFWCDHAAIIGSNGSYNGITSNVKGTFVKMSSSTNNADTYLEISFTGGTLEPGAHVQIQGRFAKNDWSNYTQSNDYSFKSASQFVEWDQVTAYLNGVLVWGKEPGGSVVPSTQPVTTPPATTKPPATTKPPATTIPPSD

[2] = biological target: T2, scaffoldin Scaf-ct displayed on the yeast cell surface (chimeric: C. cellulolyticum, C. …); assay: immunofluorescence microscopy with anti-His6 on yeast displaying Scaf-ct incubated with E. coli lysate
T2 construct: also called Sacf-ct; not shown: yeast surface display anchor of vector pCTCON2; C-terminal c-Myc tag
T2 chain: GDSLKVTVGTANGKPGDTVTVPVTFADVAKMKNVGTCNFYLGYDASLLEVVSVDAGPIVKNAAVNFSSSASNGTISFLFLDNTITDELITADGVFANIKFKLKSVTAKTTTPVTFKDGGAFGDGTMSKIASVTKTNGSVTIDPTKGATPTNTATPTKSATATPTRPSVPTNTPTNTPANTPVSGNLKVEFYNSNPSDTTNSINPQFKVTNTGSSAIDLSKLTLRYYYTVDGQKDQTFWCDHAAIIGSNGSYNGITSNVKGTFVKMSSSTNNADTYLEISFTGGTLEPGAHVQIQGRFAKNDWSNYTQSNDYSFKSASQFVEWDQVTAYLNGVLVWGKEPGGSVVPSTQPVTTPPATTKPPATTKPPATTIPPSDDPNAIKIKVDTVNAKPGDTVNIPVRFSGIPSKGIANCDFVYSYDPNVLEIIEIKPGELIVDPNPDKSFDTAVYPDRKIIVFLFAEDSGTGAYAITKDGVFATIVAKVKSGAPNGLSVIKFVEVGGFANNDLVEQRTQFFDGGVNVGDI

[3] = biological target: T3, trifunctional scaffoldin Scaf-ctf displayed on the yeast (S. cerevisiae EBY100) cell surface (chimeric: C. cellulolyticum, C. …, Displayed on the S. cerevisiae EBY100 cell surface through an N-terminal anchor fusion, which the letters do not carry.); assay: immunofluorescence microscopy, yeast displaying Scaf-ctf incubated with E. coli lysate
T3 construct: also called Sacf-ctf; SCAF6; not shown: N-terminal yeast display anchor and linker of vector pCTCON2 (called the GPI anchor); C-terminal c-Myc tag; the vector junctions; possibly a His stretch carried over from pETscaf6, since reverse primer R1SalI anneals on His codons
T3 chain: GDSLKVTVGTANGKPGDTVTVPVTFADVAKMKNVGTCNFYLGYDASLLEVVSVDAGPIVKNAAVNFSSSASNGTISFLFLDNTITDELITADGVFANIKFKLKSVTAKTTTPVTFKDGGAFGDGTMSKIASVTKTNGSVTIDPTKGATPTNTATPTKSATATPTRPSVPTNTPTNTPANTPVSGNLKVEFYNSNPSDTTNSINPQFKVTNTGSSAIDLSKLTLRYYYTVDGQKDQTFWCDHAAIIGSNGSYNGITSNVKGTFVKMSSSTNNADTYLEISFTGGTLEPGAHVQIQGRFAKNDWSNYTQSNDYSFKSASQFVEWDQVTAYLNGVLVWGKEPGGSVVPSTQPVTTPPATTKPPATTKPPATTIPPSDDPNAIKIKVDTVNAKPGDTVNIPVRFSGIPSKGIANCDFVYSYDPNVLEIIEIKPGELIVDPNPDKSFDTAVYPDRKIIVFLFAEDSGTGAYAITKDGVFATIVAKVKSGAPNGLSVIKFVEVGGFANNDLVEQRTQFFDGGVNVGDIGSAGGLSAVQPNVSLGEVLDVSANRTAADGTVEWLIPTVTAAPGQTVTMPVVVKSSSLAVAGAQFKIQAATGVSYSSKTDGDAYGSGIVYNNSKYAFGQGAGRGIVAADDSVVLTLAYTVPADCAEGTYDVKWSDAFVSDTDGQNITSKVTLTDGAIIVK

B1: endoglucanase CelG from C. cellulolyticum fused to a dockerin domain from R. flavefaciens (Gf), His6-tagged (enzyme)
chain: MGTYNYGEALQKSIMFYEFQRSGDLPADKRDNWRDDSGMKDGSDVGVDLTGGWYDAGDHVKFNLPMSYTSAMLAWSLYEDKDAYDKSGQTKYIMDGIKWANDYFIKCNPTPGVYYYQVGDGGKDHSWWGPAEVMQMERPSFKVDASKPGSAVCASTAASLASAAVVFKSSDPTYAEKCISHAKNLFDMADKAKSDAGYTAASGYYSSSSFYDDLSWAAVWLYLATNDSTYLDKAESYVPNWGKEQQTDIIAYKWGQCWDDVHYGAELLLAKLTNKQLYKDSIEMNLDFWTTGVNGTRVSYTPKGLAWLFQWGSLRHATTQAFLAGVYAEWEGCTPSKVSVYKDFLKSQIDYALGSTGRSFVVGYGVNPPQHPHHRTAHGSWTDQMTSPTYHRHTIYGALVGGPDNADGYTDEINNYVNNEIACDYNAGFTGALAKMYKHSGGDPIPNFKAIEKITNDEVIIKAGLNSTGPNYTEIKAVVYNQTGWPARVTDKISFKYFMDLSEIVAAGIDPLSLVTSSNYSEGKNTKVSGVLPWDVSNNVYYVNVDLTGENIYPGGQSACRREVQFRIAAPQGRRYWNPKNDFSYDGLPTTSTVNTVTNIPVYDNGVKVFGNEPAGGSEPGTKLVPTWGDTNCDGVVNVADVVVLNRFLNDPTYSNITDQGKVNADVVDPQDKSGAAVDPAGVKLTVADSEAILKAIVELITLPQHHHHHH
notes: Expressed in E. coli; also called CelG-Df
[1]
  binding result: no binding
[2]
  binding result: no binding

B2: exoglucanase CelE from C. cellulolyticum fused to a dockerin domain from the same species (Ec), His6-tagged (enzyme)
chain: MLVGAGDLIRNHTFDNRVGLPWHVVESYPAKASFEITSDGKYKITAQKIGEAGKGERWDIQFRHRGLALQQGHTYTVKFTVTASRACKIYPKIGDQGDPYDEYWNMNQQWNFLELQANTPKTVTQTFTQTKGDKKNVEFAFHLAPDKTTSEAQNPASFQPITYTFDEIYIQDPQFAGYTEDPPEPTNVVRLNQVGFYPNADKIATVATSSTTPINWQLVNSTGAAVLTGKSTVKGADRASGDNVHIIDFSSYTTPGTDYKIVTDVSVTKAGDNESMKFNIGDDLFTQMKYDSMKYFYHNRSAIPIQMPYCDQSQWARPAGHTTDILAPDPTKDYKANYTLDVTGGWYDAGDHGKYVVNGGIATWTVMNAYERALHMGGDTSVAPFKDGSLAIPEAEVYPDILDEARYQLINMKTLLNSQVPAGKYAGMAHHKAHDERWTALAVRPDQDTMKRWLQPPSTAATLNLAAIAAQSSRLWKQFDSAFATKCLTAAETARDAAVAHPEIYATMEQGAGGGAYGDNYVLDDFYWAACELYATTGSDKYLNYIKSSKHYLEMPTELTGGENTGITGAFDWGCTAGMGTITLALVPTKLPAADVATAKANIQAAADKFISISKAQGYGVPLEEKVISSPFDASVVKGFQWGSNSFVINEAIVMSYAYEFSDVNGTKNNKYINGALTAMDYLLGRNPNIQSYITGYGDNPLENPHHRFWAYQADNTFPKPPPGCLSGGPNSGLQDPWVKGSGWQPGERPAEKCFMDNIESWSTNEITINWNAPLVWISAYLDEKGPEIGGSVTPPTNLGDVNGDGNKDALDFAALKKALLSQDTSTINVANADINKDGSIDAVDFALLKSFLLGKITQHHHHHH
notes: Expressed in E. coli and used as cell lysate or purified; also called CelE-Dc
[3]
  binding result: binds
